Experiment [1] concerns the target T1, recombinant SARS-CoV-2 RBD with C-terminal AviTag (SARS-CoV-2, UniProt P0DTC2 319-541). The experiment in a line: BLI, biotinylated RBD on streptavidin biosensors [Cont. 2]. (In general: Biolayer interferometry detects binding as a change in optical thickness at a sensor tip.)
For experiment [2], the target named is T2, SARS-CoV-2 spike protein on pseudotyped lentivirus (Wuhan Reference Pseudovirus) (SARS-CoV-2, UniProt P0DTC2 14-1273). The experiment in a line: cell-based or functional assay.
Experiment [3] has as its target T1, recombinant SARS-CoV-2 RBD with …. The experiment in a line: ELISA, competition with coated ACE2-Fc for RBD [Cont. 2]. (In an ELISA, binding on a coated surface is turned into a signal by an enzyme label.)
Experiment [4] has the same target. The experiment in a line: BLI, biotinylated RBD on streptavidin biosensors [Cont. 1].
Experiment [5] shares this target. The experiment in a line: ELISA, competition with coated ACE2-Fc for RBD [Cont. 1].
Experiment [6] concerns the target T2, SARS-CoV-2 spike protein on pseudotyped …. The experiment in a line: cell-based or functional assay. The source holds these as a separate data set.
For experiment [7], the target named is T1, recombinant SARS-CoV-2 RBD with …. The experiment in a line: BLI, biotinylated RBD on streptavidin biosensors [Cont. 5].
The target is the same in experiment [8]. The experiment in a line: ELISA, competition with coated ACE2-Fc for RBD [Cont. 5].
Experiment [9] has the same target. The experiment in a line: BLI, biotinylated RBD on streptavidin biosensors; BLD: below limit of detection.
The target is the same in experiment [10]. The experiment in a line: BLI, biotinylated RBD on streptavidin biosensors [Cont. 3].
The target is the same in experiment [11]. The experiment in a line: BLI, biotinylated RBD on streptavidin biosensors.
For experiment [12], the target named is T2, SARS-CoV-2 spike protein on pseudotyped …. The experiment in a line: cell-based or functional assay. The source holds these as a separate data set.
For experiment [13], the target named is T1, recombinant SARS-CoV-2 RBD with …. The experiment in a line: ELISA, competition with coated ACE2-Fc for RBD.
For experiment [14] the target is unchanged. The experiment in a line: ELISA, competition with coated human ACE2-FC for RBD-AviTag.
For experiment [15] the target is unchanged. The experiment in a line: BLI, biotinylated RBD on streptavidin biosensors, global 1:1 fit.
For experiment [16] the target is unchanged. The experiment in a line: BLI, biotinylated RBD on streptavidin biosensors; OR: over-range [Cont. 3].
For experiment [17] the target is unchanged. The experiment in a line: ELISA, competition with coated ACE2-Fc for RBD [Cont. 3].
The target in experiment [18] is T2, SARS-CoV-2 spike protein on pseudotyped …. The experiment in a line: cell-based or functional assay. The source holds these as a separate data set.

B1: PP822 MBP-R5A-E5-H6 (VHH)
VHH: QVQLVESGGGLVQPGGSLRLSCAASGYDFDILRMAWFRQAPGKEREMVAAITSAESVNYEDSVKGRFTISRDNAKNTVYLQMNSLKPEDTAVYYCATYDYTDDYGYASWGQGTQVTVSS
notes: Form: Monomer
The term Kd denotes a measure of binding affinity in units of concentration. A word on the IC50: it is the concentration that gives 50% inhibition. As for B1, in [1], the Kd came out at 6.97 nM. Further, in experiment [2], the “infectivity % under 10 ug/mL VHH treatment” value (shortened to “infectivity %”) was 71.6%. Moreover, the IC50 in [3] is 183 nM.

B2: PP813 MBP-R2E-D2-H6 (VHH)
VHH: QVQLVESGGGLVQPGGSLRLSCAASGHQLSTNATHWFRQAPGKNREFVASIGSGSSSYYADSVKGRFTISRDNAKNTVYLQMNSLKPEDTAVYYCTALGGDELDGMTYDYWGQGTQVTVSS
notes: Form: Monomer
For B2, the “infectivity %” value in experiment [2] is 75.5%. Besides, in [4], the dissociation constant Kd worked out at 100 nM.

B3: dimeric VHH (VHH-5HVZ-MBP) R2C-G6 (VHH)
VHH: QVQLVESGGGLVQPGGSLRLSCAASGSIYKYSDVHWFRQAPGKAREAVALLTGAGTTIYGDSVKGRFTISRDNAKNTVYLQMNSLKPEDTAVYYCAAGQGFKATRTFDSWGQGTQVTVSS
As to B3, the IC50 in experiment [5] came to 3.9 nM. Besides, the Kd in experiment [4] came out at 35.7 nM. In [6], the “Pseudovirus inhibition IC50 [Cont. 1]” value was 134 nM.

B4: PP846 MBP-R5D-G6-H6 (VHH)
VHH: QVQLVESGGGLVQPGGSLRLSCAASGRILAANIVHWYRQAPGKNREGVAGITSGGSTYYADSVKGRFTISRDNAKNTVYLQMNSLKPEDTAVYYCAAKPLGSPDDFDYWGQGTQVTVSS
notes: Form: Monomer
Consider B4, for which the Kd in [7] was 564 nM. Further, the “infectivity %” value in experiment [2] was 77.1%. Also, the IC50 in experiment [8] is 7.5 nM.

B5: PP802 MBP-R2A-C5-H6 (VHH)
VHH: QVQLVESGGGLVQPGGSLRLSCAASGTWGNIQYLSWFRQAPGKRREFVAAITPNNGTNYADSVKGRFTISRDNAKNTVYLQMNSLKPEDTAVYYCTAVLWYTTKEGPYDYWGQGTQVTVSS
notes: Form: Monomer
As to B5, the “infectivity %” value in [2] was 87.8%. Also, the Kd in [9] is roughly 23000 nM.

B6: MBP-5HVZ-R2A-C5-H6 (VHH, not shown: large carriers; small tags and cut ends)
VHH: B5 VHH
With B6, in [9], the Kd was roughly 3250 nM.

B7: PP826 MBP-R5C-A2-H6 (VHH)
VHH: QVQLVESGGGLVQPGGSLRLSCAASGDIFSKNAMHWVRQAPGKQREFVAGIYSDGSSLYADSVKGRFTISRDNAKNTVYLQMNSLKPEDTAVYYCAALDYSARYRTWGQGTQVTVSS
notes: Form: Monomer
For the molecule B7, the Kd in experiment [10] stood at 420 nM. Moreover, in [2], the “infectivity %” value was determined as 70.6%.

B8: dimeric VHH (VHH-5HVZ-MBP) R2A-F3 (VHH)
VHH: QVQLVESGGGLVQPGGSLRLSCAASGSITSINWMHWFRQAPGKDREGVASISQTGRGSYADSVKGRFTISRDNAKNTVYLQMNSLKPEDTAVYYCAAASRTGTPYNYWGQGTQVTVSS
Consider B8, for which the equilibrium dissociation constant (Kd) in experiment [11] came to 5.66 nM; in experiment [15], 5.7 nM. Further, the “Pseudovirus inhibition IC50” value in experiment [12] stood at 272 nM. The IC50 in [13] stood at 1.6 nM. Also, the “IC50 (read off the curve)” value in experiment [14] is roughly 2 nM.

B9: PP828 MBP-R5C-B2-H6 (VHH)
VHH: QVQLVESGGGLVQPGGSLRLSCAASGSIFSLNWVHWFRQAPGKSREGVASINSGGHADYSDSVKGRFTISRDNAKNTVYLQMNSLKPEDTAVYYCAAGPYGAYNFNSWGQGTQVTVSS
notes: Form: Monomer
As to B9, the “infectivity %” value in experiment [2] came to 73.4%. In [16], the Kd is roughly 1370 nM. In addition, the IC50 in experiment [17] worked out at 373 nM.

B10: R5D-D4 (competition ELISA sample) (VHH)
VHH: QVQLVESGGGLVQPGGSLRLSCAASGSDFTINAMHWFRQAPGKQREFVATITSTSSTAYRDSVKGRFTISRDNAKNTVYLQMNSLKPEDTAVYYCAAFAVRDADTAGWTARDYWGQGTQVTVSS
B10: the dissociation constant Kd in [7] and in experiment [15] was 130 nM each time. Also, the “Pseudovirus inhibition IC50 [Cont. 5]” value in experiment [18] was 166 nM. Further, in experiment [8], the IC50 worked out at 48.1 nM.

B11: PP819 MBP-R5A-C5-H6 (VHH)
VHH: QVQLVESGGGLVQPGGSLRLSCAASGDIFSINALHWFRQAPGKQREEVAAITSGGSTGYADSVKGRFTISRDNAKNTVYLQMNSLKPEDTAVYYCAAQQARGGLDSDYWGQGTQVTVSS
notes: Form: Monomer
With B11, the Kd in experiment [1] was 42.1 nM. Also, the “infectivity %” value in experiment [2] turned out to be 54.1%. In addition, the IC50 in [3] amounted to 71.9 nM.

(Values after patent publication US20240150440A1 (LUMEN BIOSCIENCE, published 2024).)
